The supplement of paper PMC9112550, “Optimization of the antimicrobial peptide Bac7 by deep mutational scanning” (BMC Biology, 2022)

Test system: Escherichia coli TOP10
Assay: shrunken log2 fold change of peptide-encoding DNA abundance (4.5 h post-induction vs induction); higher = less antimicrobial activity (less host growth inhibition)
Details: time post-induction: 4.5 h; library: site-saturation at positions 5, 18, 19, 20
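Further: peptides expressed intracellularly from a pBAD plasmid library in pooled LB shake-flask culture, induced with 0.3% L-arabinose, DNA abundance read by NGS, three biological replicates, DESeq2 with apeglm shrinkage.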

Sequence	shrunken log2 fold change
RRIRCRPPRLPRPRPRPHEWPRP	0.00702
RRIRHRPPRLPRPRPRPLNQPRP	-0.17
RRIRFRPPRLPRPRPRPQLVPRP	-0.117
RRIRGRPPRLPRPRPRPTKMPRP	0.521
RRIRSRPPRLPRPRPRPSHRPRP	-0.41
RRIRIRPPRLPRPRPRPHMMPRP	-1.37
RRIRVRPPRLPRPRPRPYFCPRP	-0.483
RRIRCRPPRLPRPRPRPALAPRP	0.475
RRIRRRPPRLPRPRPRPDNEPRP	0.207
RRIRGRPPRLPRPRPRPQECPRP	0.226
RRIRTRPPRLPRPRPRPTRGPRP	0.705
RRIRNRPPRLPRPRPRPDIDPRP	-0.0391
RRIRIRPPRLPRPRPRPHFKPRP	-0.368
RRIRDRPPRLPRPRPRPHHLPRP	-0.0476
RRIRKRPPRLPRPRPRPDKTPRP	-0.0726
RRIRRRPPRLPRPRPRPLVSPRP	0.153
RRIRTRPPRLPRPRPRPCYWPRP	0.0189
RRIRFRPPRLPRPRPRPARQPRP	0.379
RRIRNRPPRLPRPRPRPRWPPRP	0.286
RRIRWRPPRLPRPRPRPQGKPRP	0.127
RRIRHRPPRLPRPRPRPQGAPRP	-0.171
RRIRDRPPRLPRPRPRPTLVPRP	0.196
RRIRKRPPRLPRPRPRPQHLPRP	0.0344
RRIRRRPPRLPRPRPRPVTMPRP	0.0683
RRIRHRPPRLPRPRPRPINAPRP	0.0354

Sequence	shrunken log2 fold change
RRIRTRPPRLPRPRPRPQLAPRP	0.129
RRIRFRPPRLPRPRPRPACSPRP	0.0139
RRIRNRPPRLPRPRPRPWMKPRP	-0.0173
RRIRMRPPRLPRPRPRPTEQPRP	-0.0171
RRIRCRPPRLPRPRPRPQWNPRP	0.618
RRIRTRPPRLPRPRPRPHANPRP	-0.254
RRIRIRPPRLPRPRPRPDFRPRP	-0.371
RRIRKRPPRLPRPRPRPWQRPRP	-0.0202
RRIRHRPPRLPRPRPRPKFDPRP	-0.336
RRIRWRPPRLPRPRPRPDWEPRP	0.229
RRIRNRPPRLPRPRPRPQHGPRP	-0.0487
RRIRQRPPRLPRPRPRPAKLPRP	0.0771
RRIRDRPPRLPRPRPRPTDTPRP	0.146
RRIRDRPPRLPRPRPRPSHIPRP	-1.15
RRIRVRPPRLPRPRPRPEKWPRP	0.0257
RRIRQRPPRLPRPRPRPWWAPRP	-0.014
RRIRKRPPRLPRPRPRPPMFPRP	0.269
RRIRGRPPRLPRPRPRPESDPRP	2.08
RRIRDRPPRLPRPRPRPRNGPRP	0.0517
RRIRSRPPRLPRPRPRPAGYPRP	0.0337
RRIRVRPPRLPRPRPRPHVCPRP	-0.0775
RRIRSRPPRLPRPRPRPNPHPRP	-0.139
RRIRRRPPRLPRPRPRPWVEPRP	0.0269
RRIRGRPPRLPRPRPRPGMYPRP	0.191
RRIRTRPPRLPRPRPRPRAVPRP	0.617

Sequence	shrunken log2 fold change
RRIRYRPPRLPRPRPRPDSEPRP	-0.0121
RRIRMRPPRLPRPRPRPWVNPRP	0.0668
RRIRSRPPRLPRPRPRPNMVPRP	-0.0658
RRIRPRPPRLPRPRPRPENPPRP	0.0677
RRIRWRPPRLPRPRPRPQSTPRP	0.02
RRIRDRPPRLPRPRPRPSPRPRP	0.00292
RRIRCRPPRLPRPRPRPNGQPRP	-0.0579
RRIRDRPPRLPRPRPRPTGGPRP	0.166
RRIRGRPPRLPRPRPRPWDQPRP	0.432
RRIRDRPPRLPRPRPRPMMCPRP	-0.131
RRIRYRPPRLPRPRPRPMQLPRP	0.219
RRIRKRPPRLPRPRPRPIACPRP	0.104
RRIRIRPPRLPRPRPRPVRNPRP	-0.0578
RRIRPRPPRLPRPRPRPPGDPRP	0.567
RRIRWRPPRLPRPRPRPKVDPRP	0.0401
RRIRNRPPRLPRPRPRPSWGPRP	-0.139
RRIRNRPPRLPRPRPRPGRVPRP	0.296
RRIRNRPPRLPRPRPRPRTVPRP	-0.403
RRIRARPPRLPRPRPRPWRVPRP	0.12
RRIRYRPPRLPRPRPRPRGWPRP	0.575
RRIRARPPRLPRPRPRPAKDPRP	0.316
RRIRLRPPRLPRPRPRPPLYPRP	1.61
RRIRARPPRLPRPRPRPQCPPRP	0.108
RRIRVRPPRLPRPRPRPPKKPRP	0.167
RRIRRRPPRLPRPRPRPINKPRP	-0.431

Sequence	shrunken log2 fold change
RRIRRRPPRLPRPRPRPDLQPRP	0.0255
RRIRMRPPRLPRPRPRPHKLPRP	-0.0702
RRIRYRPPRLPRPRPRPESLPRP	-0.0595
RRIRARPPRLPRPRPRPIMEPRP	0.0783
RRIRMRPPRLPRPRPRPDTTPRP	0.536
RRIRARPPRLPRPRPRPLDNPRP	0.151
RRIRSRPPRLPRPRPRPDCSPRP	0.0664
RRIRLRPPRLPRPRPRPRQRPRP	0.892
RRIRERPPRLPRPRPRPWEQPRP	-0.131
RRIRHRPPRLPRPRPRPTKCPRP	-0.0314
RRIRRRPPRLPRPRPRPKNHPRP	-0.0297
RRIRARPPRLPRPRPRPLFQPRP	0.0426
RRIRARPPRLPRPRPRPINQPRP	-0.195
RRIRTRPPRLPRPRPRPEARPRP	0.552
RRIRGRPPRLPRPRPRPWIHPRP	0.0779
RRIRGRPPRLPRPRPRPASIPRP	0.371
RRIRQRPPRLPRPRPRPPQVPRP	1.3
RRIRQRPPRLPRPRPRPKMEPRP	-0.0177
RRIRPRPPRLPRPRPRPLALPRP	0.193
RRIRSRPPRLPRPRPRPPDKPRP	0.0307
RRIRVRPPRLPRPRPRPIQMPRP	-0.0987
RRIRSRPPRLPRPRPRPLKEPRP	0.176
RRIRMRPPRLPRPRPRPYRDPRP	-0.018
RRIRARPPRLPRPRPRPEAKPRP	0.73
RRIRRRPPRLPRPRPRPYQSPRP	-0.145

Sequence	shrunken log2 fold change
RRIRKRPPRLPRPRPRPRKMPRP	0.588
RRIRYRPPRLPRPRPRPMPAPRP	0.348
RRIRVRPPRLPRPRPRPAWKPRP	0.106
RRIRARPPRLPRPRPRPQPWPRP	0.536
RRIRQRPPRLPRPRPRPECGPRP	0.238
RRIRQRPPRLPRPRPRPMGPPRP	-0.0254
RRIRPRPPRLPRPRPRPINFPRP	-0.168
RRIRFRPPRLPRPRPRPKLRPRP	0.147
RRIRGRPPRLPRPRPRPETMPRP	1.14
RRIRERPPRLPRPRPRPRMDPRP	-0.495
RRIRIRPPRLPRPRPRPVSLPRP	-0.147
RRIRDRPPRLPRPRPRPTYMPRP	-0.248
RRIRERPPRLPRPRPRPPGKPRP	0.28
RRIRHRPPRLPRPRPRPGIYPRP	0.0151
RRIRRRPPRLPRPRPRPFFKPRP	-0.177
RRIRIRPPRLPRPRPRPTPAPRP	0.198
RRIRMRPPRLPRPRPRPVSPPRP	0.418
RRIRVRPPRLPRPRPRPTREPRP	0.59
RRIRSRPPRLPRPRPRPRQAPRP	-0.0163
RRIRTRPPRLPRPRPRPQHGPRP	-0.187
RRIRNRPPRLPRPRPRPGDYPRP	0.0582
RRIRGRPPRLPRPRPRPCHGPRP	-0.355
RRIRSRPPRLPRPRPRPDNLPRP	-0.0926
RRIRNRPPRLPRPRPRPTCAPRP	0.161
RRIRHRPPRLPRPRPRPHLRPRP	-0.0385

Sequence	shrunken log2 fold change
RRIRIRPPRLPRPRPRPSANPRP	-0.15
RRIRLRPPRLPRPRPRPEISPRP	0.099
RRIRCRPPRLPRPRPRPFISPRP	-0.689
RRIRERPPRLPRPRPRPGYIPRP	-0.709
RRIRQRPPRLPRPRPRPCNWPRP	0.0183
RRIRCRPPRLPRPRPRPVMPPRP	-0.139
RRIRYRPPRLPRPRPRPHTLPRP	-0.959
RRIRIRPPRLPRPRPRPSEDPRP	-0.212
RRIRLRPPRLPRPRPRPQDKPRP	-0.431
RRIRCRPPRLPRPRPRPMKSPRP	-0.1
RRIRERPPRLPRPRPRPNARPRP	-0.0167
RRIRLRPPRLPRPRPRPIFFPRP	0.103
RRIRCRPPRLPRPRPRPGYVPRP	-0.0932
RRIRMRPPRLPRPRPRPVEGPRP	-0.000687
RRIRIRPPRLPRPRPRPKGDPRP	0.424
RRIRPRPPRLPRPRPRPHIPPRP	-0.492
RRIRNRPPRLPRPRPRPMDSPRP	-0.0507
RRIRPRPPRLPRPRPRPVHQPRP	-0.00254
RRIRDRPPRLPRPRPRPDTCPRP	0.00173
RRIRVRPPRLPRPRPRPEVMPRP	0.344
RRIRYRPPRLPRPRPRPILEPRP	0.0174
RRIRMRPPRLPRPRPRPEGGPRP	1.33
RRIRDRPPRLPRPRPRPMQPPRP	0.0977
RRIRIRPPRLPRPRPRPHHSPRP	-0.46
RRIRTRPPRLPRPRPRPICGPRP	0.0749
